Laboratory results reported in US20190324040A1.

Columns and labels:
[1] = molecular target: Zika virus (ZIKV), whole virus particles (Zika virus); test: P1F12-ZIKV binding inhibition ELISA (4G2-captured ZIKV); competitor: 1/10 plasma of donor 1235 (DENV+)
[2] = molecular target: Zika virus (ZIKV), whole virus particles (Zika virus); test: P1F12-ZIKV binding inhibition ELISA (4G2-captured ZIKV); competitor: 1/10 plasma of donor Class 9 (U.S. naive)
[3] = molecular target: Zika virus (ZIKV), whole virus particles (Zika virus); test: P1F12-ZIKV binding inhibition ELISA (4G2-captured ZIKV); competitor: 1/10 plasma of donor 3013 (ZIKV+)
[4] = molecular target: Zika virus (ZIKV), whole virus particles (Zika virus); test: P1F12-ZIKV binding inhibition ELISA (4G2-captured ZIKV); competitor: 1/10 plasma of donor 177 (DENV+)
[5] = molecular target: Zika virus (ZIKV), whole virus particles (Zika virus); test: P1F12-ZIKV binding inhibition ELISA (4G2-captured ZIKV); competitor: 1/10 plasma of donor Class 3 (U.S. naive)
[6] = molecular target: Zika virus (ZIKV), whole virus particles (Zika virus); test: P1F12-ZIKV binding inhibition ELISA (4G2-captured ZIKV); competitor: 1/10 plasma of donor 1255 (naive)
[7] = molecular target: Zika virus (ZIKV), whole virus particles (Zika virus); test: P1F12-ZIKV binding inhibition ELISA (4G2-captured ZIKV); competitor: 1/10 plasma of donor 515 (naive)
[8] = molecular target: Zika virus (ZIKV), whole virus particles (Zika virus); test: P1F12-ZIKV binding inhibition ELISA (4G2-captured ZIKV); competitor: 1/10 plasma of donor 184 (DENV+)
[9] = molecular target: Zika virus (ZIKV), whole virus particles (Zika virus); test: P1F12-ZIKV binding inhibition ELISA (4G2-captured ZIKV); competitor: 1/10 plasma of donor 1294 (DENV+)
[10] = molecular target: Zika virus (ZIKV), whole virus particles (Zika virus); test: P1F12-ZIKV binding inhibition ELISA (4G2-captured ZIKV); competitor: 1/10 plasma of donor 138 (DENV+)
[11] = molecular target: Zika virus (ZIKV), whole virus particles (Zika virus); test: P1F12-ZIKV binding inhibition ELISA (4G2-captured ZIKV); competitor: 1/10 plasma of donor 507 (DENV+)
[12] = molecular target: Zika virus (ZIKV), whole virus particles (Zika virus); test: P1F12-ZIKV binding inhibition ELISA (4G2-captured ZIKV); competitor: 1/10 plasma of donor hu004 (ZIKV+)
[13] = molecular target: Zika virus (ZIKV), whole virus particles (Zika virus); test: P1F12-ZIKV binding inhibition ELISA (4G2-captured ZIKV); competitor: 1/10 plasma of donor hu002 (U.S. naive)
[14] = molecular target: Zika virus (ZIKV), whole virus particles (Zika virus); test: P1F12-ZIKV binding inhibition ELISA (4G2-captured ZIKV); competitor: 1/10 plasma of donor 3004 (ZIKV+)
[15] = molecular target: Zika virus (ZIKV), whole virus particles (Zika virus); test: P1F12-ZIKV binding inhibition ELISA (4G2-captured ZIKV); competitor: 1/10 plasma of donor 3002 (ZIKV+)
[16] = molecular target: Zika virus (ZIKV), whole virus particles (Zika virus); test: P1F12-ZIKV binding inhibition ELISA (4G2-captured ZIKV); competitor: 1/10 plasma of donor Class 10 (U.S. naive)
[17] = molecular target: Zika virus (ZIKV), whole virus particles (Zika virus); test: P1F12-ZIKV binding inhibition ELISA (4G2-captured ZIKV); competitor: 1/10 plasma of donor 1273 (naive)
[18] = molecular target: Zika virus (ZIKV), whole virus particles (Zika virus); test: P1F12-ZIKV binding inhibition ELISA (4G2-captured ZIKV); competitor: 1/10 plasma of donor 1248 (DENV+)
[19] = molecular target: Zika virus (ZIKV), whole virus particles (Zika virus); test: P1F12-ZIKV binding inhibition ELISA (4G2-captured ZIKV); competitor: 1/10 plasma of donor Class 8 (U.S. naive)
[20] = molecular target: Zika virus (ZIKV), whole virus particles (Zika virus); test: P1F12-ZIKV binding inhibition ELISA (4G2-captured ZIKV); competitor: 1/10 plasma of donor Class 13 (U.S. naive)
[21] = molecular target: Zika virus (ZIKV), whole virus particles (Zika virus); test: P1F12-ZIKV binding inhibition ELISA (4G2-captured ZIKV); competitor: 1/10 plasma of donor 1261 (naive)
[22] = molecular target: Zika virus (ZIKV), whole virus particles (Zika virus); test: P1F12-ZIKV binding inhibition ELISA (4G2-captured ZIKV); competitor: 1/10 plasma of donor FA7006 (YF vaccine)
[23] = molecular target: Zika virus (ZIKV), whole virus particles (Zika virus); test: P1F12-ZIKV binding inhibition ELISA (4G2-captured ZIKV); competitor: 1/10 plasma of donor 1302 (ZIKV+)
[24] = molecular target: Zika virus (ZIKV), whole virus particles (Zika virus); test: P1F12-ZIKV binding inhibition ELISA (4G2-captured ZIKV); competitor: 1/10 plasma of donor 152 (DENV+)
[25] = molecular target: Zika virus (ZIKV), whole virus particles (Zika virus); test: P1F12-ZIKV binding inhibition ELISA (4G2-captured ZIKV); competitor: 1/10 plasma of donor 1252 (DENV+)
[26] = molecular target: Zika virus (ZIKV), whole virus particles (Zika virus); test: P1F12-ZIKV binding inhibition ELISA (4G2-captured ZIKV); competitor: 1/10 plasma of donor Class 11 (U.S. naive)
[27] = molecular target: Zika virus (ZIKV), whole virus particles (Zika virus); test: virus capture ELISA
[28] = molecular target: Zika virus (ZIKV), whole virus particles (Zika virus); test: P1F12-ZIKV binding inhibition ELISA (4G2-captured ZIKV); competitor: 1/10 plasma of donor 168 (DENV+)
[29] = molecular target: Zika virus (ZIKV), whole virus particles (Zika virus); test: P1F12-ZIKV binding inhibition ELISA (4G2-captured ZIKV); competitor: 1/10 plasma of donor FA2005 (YF vaccine)
[30] = molecular target: Zika virus (ZIKV), whole virus particles (Zika virus); test: P1F12-ZIKV binding inhibition ELISA (4G2-captured ZIKV); competitor: 1/10 plasma of donor Class 7 (U.S. naive)
[31] = molecular target: Zika virus (ZIKV), whole virus particles (Zika virus); test: P1F12-ZIKV binding inhibition ELISA (4G2-captured ZIKV); competitor: 1/10 plasma of donor 802 (ZIKV+)
[32] = molecular target: Zika virus (ZIKV), whole virus particles (Zika virus); test: P1F12-ZIKV binding inhibition ELISA (4G2-captured ZIKV); competitor: 1/10 plasma of donor Class 6 (U.S. naive)
[33] = molecular target: Zika virus (ZIKV), whole virus particles (Zika virus); test: P1F12-ZIKV binding inhibition ELISA (4G2-captured ZIKV); competitor: 1/10 plasma of donor 1280 (DENV+)
[34] = molecular target: Zika virus (ZIKV), whole virus particles (Zika virus); test: P1F12-ZIKV binding inhibition ELISA (4G2-captured ZIKV); competitor: 1/10 plasma of donor 801 (ZIKV+)
[35] = molecular target: Zika virus (ZIKV), whole virus particles (Zika virus); test: P1F12-ZIKV binding inhibition ELISA (4G2-captured ZIKV); competitor: 1/10 plasma of donor 533 (ZIKV+)
[36] = molecular target: Zika virus (ZIKV), whole virus particles (Zika virus); test: P1F12-ZIKV binding inhibition ELISA (4G2-captured ZIKV); competitor: 1/10 plasma of donor 3012 (ZIKV+)
[37] = molecular target: Zika virus (ZIKV), whole virus particles (Zika virus); test: P1F12-ZIKV binding inhibition ELISA (4G2-captured ZIKV); competitor: 1/10 plasma of donor Class 2 (U.S. naive)
[38] = molecular target: Zika virus (ZIKV), whole virus particles (Zika virus); test: P1F12-ZIKV binding inhibition ELISA (4G2-captured ZIKV); competitor: 1/10 plasma of donor Class 5 (U.S. naive)
[39] = molecular target: Zika virus (ZIKV), whole virus particles (Zika virus); test: P1F12-ZIKV binding inhibition ELISA (4G2-captured ZIKV); competitor: 1/10 plasma of donor Class 12 (U.S. naive)
[40] = molecular target: Zika virus (ZIKV), whole virus particles (Zika virus); test: P1F12-ZIKV binding inhibition ELISA (4G2-captured ZIKV); competitor: 1/10 plasma of donor 1208 (DENV+)
[41] = molecular target: Zika virus (ZIKV), whole virus particles (Zika virus); test: P1F12-ZIKV binding inhibition ELISA (4G2-captured ZIKV); competitor: 1/10 plasma of donor Class 1 (U.S. naive)
[42] = molecular target: Zika virus (ZIKV), whole virus particles (Zika virus); test: P1F12-ZIKV binding inhibition ELISA (4G2-captured ZIKV); competitor: 1/10 plasma of donor FA2002 (YF vaccine)
[43] = molecular target: Zika virus (ZIKV), whole virus particles (Zika virus); test: P1F12-ZIKV binding inhibition ELISA (4G2-captured ZIKV); competitor: 1/10 plasma of donor 12 (naive)
[44] = molecular target: Zika virus (ZIKV), whole virus particles (Zika virus); test: P1F12-ZIKV binding inhibition ELISA (4G2-captured ZIKV); competitor: 1/10 plasma of donor 3018 (ZIKV+)
[45] = molecular target: Zika virus (ZIKV), whole virus particles (Zika virus); test: cell-based or functional assay
[46] = molecular target: Zika virus (ZIKV), whole virus particles (Zika virus); test: P1F12-ZIKV binding inhibition ELISA (4G2-captured ZIKV); competitor: 1/10 plasma of donor Class 4 (U.S. naive)
[47] = molecular target: Zika virus (ZIKV), whole virus particles (Zika virus); test: P1F12-ZIKV binding inhibition ELISA (4G2-captured ZIKV); competitor: 1/10 plasma of donor Class 14 (U.S. naive)
[48] = molecular target: Zika virus (ZIKV), whole virus particles (Zika virus); test: P1F12-ZIKV binding inhibition ELISA (4G2-captured ZIKV); competitor: 1/10 plasma of donor FA2004 (YF vaccine)

B1: CC17 mAb (P1F12) (antibody, V domains shown)
VH: QVQLVQSGGGLVQPGGSLRLSCAASGFTFSSYWMSWVRQAPGKGLEWVANIKQDGSEKYYVDSVKGRFTISRDNAKNSLYLQMNSLRAEDTAVYYCAGNGWDDSSGYYYRNYYYGMDVWGQGTTVTVSS
VL: DIQMTQSPSSFSASTGDRVTITCRASQGISSYLAWYQQKPGKAPKLLIYAASTLQSGVPSRFSGSGSGTDFTLTISCLQSEDFATYYCQQYYSYPRTFGGGTKVDIK
P1F12-ZIKV inhibition assay (Abs450) [1]: 0.18 Abs450 | P1F12-ZIKV inhibition assay (Abs450) [2]: 0.316 Abs450 | P1F12-ZIKV inhibition assay (Abs450) [3]: 0.03 Abs450 | P1F12-ZIKV inhibition assay (Abs450) [4]: 0.18 Abs450 | P1F12-ZIKV inhibition assay (Abs450) [5]: 0.406 Abs450 | P1F12-ZIKV inhibition assay (Abs450) [6]: 0.323 Abs450 | P1F12-ZIKV inhibition assay (Abs450) [7]: 0.293 Abs450 | P1F12-ZIKV inhibition assay (Abs450) [8]: 0.26 Abs450 | P1F12-ZIKV inhibition assay (Abs450) [9]: 0.29 Abs450 | P1F12-ZIKV inhibition assay (Abs450) [10]: 0.34 Abs450 | P1F12-ZIKV inhibition assay (Abs450) [11]: 0.28 Abs450 | P1F12-ZIKV inhibition assay (Abs450) [12]: 0.04 Abs450 | P1F12-ZIKV inhibition assay (Abs450) [13]: 0.57 Abs450 | P1F12-ZIKV inhibition assay (Abs450) [14]: 0.03 Abs450 | P1F12-ZIKV inhibition assay (Abs450) [15]: 0.04 Abs450 | P1F12-ZIKV inhibition assay (Abs450) [16]: 0.315 Abs450 | P1F12-ZIKV inhibition assay (Abs450) [17]: 0.395 Abs450 | P1F12-ZIKV inhibition assay (Abs450) [18]: 0.36 Abs450 | P1F12-ZIKV inhibition assay (Abs450) [19]: 0.303 Abs450 | P1F12-ZIKV inhibition assay (Abs450) [20]: 0.276 Abs450 | P1F12-ZIKV inhibition assay (Abs450) [21]: 0.405 Abs450 | P1F12-ZIKV inhibition assay (Abs450) [22]: 0.396 Abs450 | P1F12-ZIKV inhibition assay (Abs450) [23]: 0.62 Abs450 | P1F12-ZIKV inhibition assay (Abs450) [24]: 0.15 Abs450 | P1F12-ZIKV inhibition assay (Abs450) [25]: 0.19 Abs450 | P1F12-ZIKV inhibition assay (Abs450) [26]: 0.395 Abs450 | ZIKV binding Abs 450 nm [27]: 0.17 Abs 450 nm | P1F12-ZIKV inhibition assay (Abs450) [28]: 0.32 Abs450 | P1F12-ZIKV inhibition assay (Abs450) [29]: 0.332 Abs450 | P1F12-ZIKV inhibition assay (Abs450) [30]: 0.246 Abs450 | P1F12-ZIKV inhibition assay (Abs450) [31]: 0.05 Abs450 | P1F12-ZIKV inhibition assay (Abs450) [32]: 0.292 Abs450 | P1F12-ZIKV inhibition assay (Abs450) [33]: 0.29 Abs450 | P1F12-ZIKV inhibition assay (Abs450) [34]: 0.04 Abs450 | P1F12-ZIKV inhibition assay (Abs450) [35]: 0.03 Abs450 | P1F12-ZIKV inhibition assay (Abs450) [36]: 0.05 Abs450 | P1F12-ZIKV inhibition assay (Abs450) [37]: 0.312 Abs450 | P1F12-ZIKV inhibition assay (Abs450) [38]: 0.389 Abs450 | P1F12-ZIKV inhibition assay (Abs450) [39]: 0.344 Abs450 | P1F12-ZIKV inhibition assay (Abs450) [40]: 0.25 Abs450 | P1F12-ZIKV inhibition assay (Abs450) [41]: 0.323 Abs450 | P1F12-ZIKV inhibition assay (Abs450) [42]: 0.319 Abs450 | P1F12-ZIKV inhibition assay (Abs450) [43]: 0.22 Abs450 | P1F12-ZIKV inhibition assay (Abs450) [44]: 0.04 Abs450 | % of Zika virus Neutralized (Vero infectivity assay), antibody at 1 µg/ml [45]: 82.3% | Neut50 [45]: 2 µg/mL | PRNT50 (plaque reduction neutralization test) [45]: 2 µg/mL | P1F12-ZIKV inhibition assay (Abs450) [46]: 0.392 Abs450 | P1F12-ZIKV inhibition assay (Abs450) [47]: 0.323 Abs450 | P1F12-ZIKV inhibition assay (Abs450) [48]: 0.393 Abs450
